Measured values: patent publication US20140057807A1 (UNIVERSITY OF CHICAGO, published 2014)

target: T1, human serum albumin (human, UniProt P02768 25-609); experiment: cradle library selection hit
T1 construct: also called HSA
T1 sequence (P02768 25-609 limits assumed): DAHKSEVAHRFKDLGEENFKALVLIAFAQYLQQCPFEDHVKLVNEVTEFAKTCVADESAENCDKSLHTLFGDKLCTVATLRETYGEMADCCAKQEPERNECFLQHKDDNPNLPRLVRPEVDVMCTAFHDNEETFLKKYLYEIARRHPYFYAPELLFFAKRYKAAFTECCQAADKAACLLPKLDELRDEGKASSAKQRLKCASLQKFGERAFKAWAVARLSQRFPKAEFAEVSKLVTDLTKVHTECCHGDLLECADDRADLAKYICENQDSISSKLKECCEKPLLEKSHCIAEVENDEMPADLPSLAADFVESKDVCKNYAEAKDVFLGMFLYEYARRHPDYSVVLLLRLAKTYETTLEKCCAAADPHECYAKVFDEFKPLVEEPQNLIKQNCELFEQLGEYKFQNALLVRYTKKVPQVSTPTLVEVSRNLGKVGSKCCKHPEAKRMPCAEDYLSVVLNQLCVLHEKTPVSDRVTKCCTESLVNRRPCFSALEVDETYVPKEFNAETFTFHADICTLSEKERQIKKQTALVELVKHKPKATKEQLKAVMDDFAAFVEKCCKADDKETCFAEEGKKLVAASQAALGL

Row | binding result | Binder
1 | binds | SEQ ID NO 197 (designed binder) PLSPPTNLHLEASPDTGVLTVSWERSTTPDITTYLILTYLGYSRVLEEVVHADQSSCTFDNLSPGLWYMVYVDTVGRVPYIGPISDTIIP
2 | binds | SEQ ID NO 164 (designed binder) PLSPPTNLHLEANPDTGVLTVSWERSTTPDITYYEINTTGYYGFYPGGLEEVVHADQSSCTFDNLSPGLYYQVTVQTVVYSMWYHPISDTIIP
3 | binds | SEQ ID NO 163 (designed binder) SLSPPTNLHLEANPDTGVLTVGWERSTTPGITSYSIDTAKDDVPYLEEVVHADQSSCTFDNLSPGLNYTVVVATVGWSVDGPISDTIIP
4 | binds | SEQ ID NO 173 (designed binder) PLSPPTNLHLEANPDTGVLTVSWERSTTPDITMYAITTYEYSRAWQYLEEVVHADQSSCTFDNLSPGLTYYVEVYTVRYTWSDPISDTIIP
5 | binds | SEQ ID NO 189 (designed binder) PLSPPTNLHLEANPDTGVLTVSWERSTTPDITYYSITTSFYYSELEEVVHADQSSCTFDNLSPGLKYMVSVSTVSYSVGSPISDTIIP
6 | binds | SEQ ID NO 192 (designed binder) PLSPPTNLHLEANPDTGVLTVSRERSTTPDITTYSIYTHSGALYVLEEVVHADQSSCTFDNPSPGLNYNVSVSTVHSRWRYGPISDTIIP
7 | binds | SEQ ID NO 201 (designed binder) VSDVPRDLEVVAATPTSLLISWDAPAVTVRGYYISYYYHSTRDSQEFTVPGSKSTATISGLKPGVSYYVGVGAVWKKDYYFPISINYRT
8 | binds | SEQ ID NO 178 (designed binder) PLSPPTNLHLEVNPDTGVLTVSWERSTTPGITQYDIATLSYGGRSGGLEEVVHADQSSCTFDNLSPGLSYVVSVSTVTSNEYSAPISDTIIP
9 | binds | SEQ ID NO 186 (designed binder) PLSPPTNLHLEANPDTGVLTVSWERSTTPDITGYSIATYLTYSNLVGLEEVVHADQSSCTFDNLSPGLSYKVSVYTVYGYSYGPISDTIIP
10 | binds | SEQ ID NO 181 (designed binder) PLSPPTNLHLEANPDTGVLTVSWERSTTPDITYYYIGTYQGTTYEHLEEVVHADQSSCTFDNLSPGLIYLVYVSTVYWDSMSSPISDTIIP
11 | binds | SEQ ID NO 172 (designed binder) PLSPPTNLHLEANPDTGVLTVSWERSTTPDITYYSIDTWTFGQWGLEEVVHADQSSCTFDNLSPGLYYYVEVVTVYEWAYSYPISDTIIP
12 | binds | SEQ ID NO 185 (designed binder) PLSPPTNLHLEANPDTGVLTVSWERSTTPDITMYYISTGGSSYKPDRLEEVVHADQSSCTFDNLSPGLDYMVYVRTVMYYNRSPISDTIIP
13 | binds | SEQ ID NO 184 (designed binder) PLSPPTNLHLEANPDTGVLTVSWERSTTPDITSYRISTEWRWRYTGLEEVVHADQSSCTFDNLSPGLIYGVGVSTVWKHNSQAPISDTIIP
14 | binds | SEQ ID NO 196 (designed binder) PLSPPTNLHLEANPDTGVLTVSWERSTTPDITYYYIHTYYWKHWQSLEEVVHADQSSCTFDNLSPGLKYGVWVSTVYRVVYYPISDTIIP
15 | binds | SEQ ID NO 183 (designed binder) PLSPPTNLHLEANPDTGVLTVSWERSTTPDITKYIISTYVDYGGYLEEVVHADQSSCTFDNLSPGLGYSVTVSTVSAGWDSPISDTIIP
16 | binds | SEQ ID NO 177 (designed binder) PLSPPTNLHLEANPDTGVLTVSWERSTTPDITMYSIYTYDYTRNYVLEEAVHADQSSCTFDNLSPGLYGYYVGVGTVTGAGWHPISDTIIP
17 | binds | SEQ ID NO 193 (designed binder) PLSPPTNLHLEANPDTGVLTVSWERSTTPDITMYGIVTIYTRYYSLEEVVHADQSSCTFDNLSPGLIYWVYVLTVYYSWYRPISDTIIP
18 | binds | SEQ ID NO 176 (designed binder) PLSPPTNLHLEANPDTGVLTVSWERSTTPDITKYIIYTGYGASYDLEEVVHADQSSCTFDNLSPGLKYTVTVWTVSYASQVPISDTIIP
19 | binds | SEQ ID NO 191 (designed binder) PLSPPTNLHLEANPDTGVLTVSWERSTTPDITRYYIRTSYVRHGRLEEVVHADQSSCTFDNLSPGLYYNVSVSTVGYYYMLPISDTIIP
20 | binds | SEQ ID NO 199 (designed binder) PLSPPTNLHLEANPDTGVLTVSWERSTTPDITAYVIYTYSESDGRVLEEVVHADQSSCTFDNLSPGLRYSVKVSTVYYSYAYPISDTIIP
21 | binds | SEQ ID NO 202 (designed binder) VSDVPRDLEVVAATPTSLLISWDAPAVTVRYYYILYGDYNAYMDYAGQEFTVPGSKSTATISGLKPGVGYVEIDVYAVRTSEEQPISINYRT
22 | binds | SEQ ID NO 198 (designed binder) PLSPPTNLHLEANPDTGVLTVSWERSTTPDITVYYIYTYTYNADLILEEVVHADQSSCTFDNLSPGLIYSVYVGTVASDDGRPISDTIIP
23 | binds | SEQ ID NO 166 (designed binder) PLSPPTNLHLEANPDTGVLTVSWERSTTPDITWYWIGTWYSGYMVGLEEVVHADQSSCTFDNLSPGLTYWVLVGTVVRSPSRRPISDTIIP

The next lines start with the binder.

Row | Binder | binding result
24 | SEQ ID NO 167 (designed binder) PLSPPTNLHLEANPDTGVLTVSWERSTTPDVTTYSIYTYGYWDSHYMSLEEVVHADQSRCTFDNLSPGLYYSVEVYTVYYGLYVVPISDTIIP | binds
25 | SEQ ID NO 169 (designed binder) PLSPPTNLHLEANPDTGVLTVSWERSTTPDITDYYIITRSRWGYLEEVVHADQSSCTFDNLSPGLRYHVYVWTVGHYRDPISDTIIP | binds
26 | SEQ ID NO 188 (designed binder) PLSPPTNLHLEANPDTGVLTVSWERSTTPDITKYYILTSGYWGGGLEEVVHADQSSCTFDNLSPGLTYLVSVWTVTHYAGYPISDTIIP | binds
27 | SEQ ID NO 195 (designed binder) PLSPPTNPHLEANPDTGVLTVSWERSTTPDITTYWIGTYYSADERLEEVVHADQSSCTFDNLSPGLYYAVVVGTVGVWYRVAPISDTIIP | binds
28 | SEQ ID NO 174 (designed binder) PLSPPTNLHLEANPDTGVLTVSWERSTTPDITDYNISTWLYTSVSVYTELEEVVHAGQSSCTFDNLSPGLAYVVYVWSTVWEHFYPSPISDTIIP | binds
29 | SEQ ID NO 175 (designed binder) PLSPPTNLHLEANPDTGVLTVSWERSTTPDITWYWINTSLANVRMSLEEVVHADQSGCTFDNLSPGLYYDVQVRTVSAAEGYPISDTIIP | binds
30 | SEQ ID NO 187 (designed binder) PLSPPTNLHLEANPDTGVLTVSWERSTTSDITKYYIATWFGDYGYSLEEVVHADQSSCTFDNLSPGLQYGVSVATVKGGQAHYPISDTIIP | binds
31 | SEQ ID NO 170 (designed binder) PLSPPTNLHLEANPDTGVLTVSWERSTTPDITNYLIQTDYFAFIKGVLEEVVHADQSSCTFDNLSPGLYYYVGVDTVSVPSHGPISDTIIP | binds
32 | SEQ ID NO 180 (designed binder) PLSPPTNLHLEANPDTGVLTVSWERSTTPDITYYYIDTNGGYWSYLEEVVHADQSSCTFDNLSPGLGYPVGYVRTVYAGWLKGPISDTIIP | binds
33 | SEQ ID NO 179 (designed binder) PLSPPTNLHLEANPDTGVLTVSWERSTTPDITMYDIKTIYYKAYYYGLEEVVHADQSSCTFDNLSPGLYYFVGVVTVERPRYYPISDTIIP | binds
34 | SEQ ID NO 194 (designed binder) PLSPPTNLHLEANPDTGVLTVSWERSTTPDITTYVIDTGAAVNYVLEEVVHADQSSCTFDNLSPGLQYSVDVVVTVWYSWYMPISDTIIP | binds
35 | SEQ ID NO 165 (designed binder) PLSPPTNLHLEANPDTGVLTVSWERSTTPDITYYGIWTLTWLQYYSYRWGLEEAVHADQSSCTFDNLSPGLVYLVYVGTVRSPMARPISDTIIP | binds
36 | SEQ ID NO 161 (designed binder) PLSPPTNLHLEANPDTGVLTVSWERSTTRDITTYGIETEYDHSVGLEEVVHADQSSCTFDNLSPGLNYDVEVVTVGWGVYQRPISDTIIP | binds
37 | SEQ ID NO 168 (designed binder) PLSPPTNLHLEANPDTGVLTVSWERSTTPDITTYGIETQTVEWVYYLEEVVHADQSSCTFDNLSPGLYYNVTVGTVMLDAAYPISDTIIP | binds
38 | SEQ ID NO 182 (designed binder) PLSPPANLRLEANPDTGVLTVSWERSTTPDITRYVIATGYGGSWYHLEEVVHADQSRCTFDNLSPGLAYYVDVYTVTPGEKHSPISDTIIP | binds
39 | SEQ ID NO 171 (designed binder) PLSPPTNLHLEANPDTGVLTVSWERSTTPDITYYTIATADYTYSYAHLEEVVHADQSSCTFDNLSPGLNYEVGVGTVSVYSYIGPISDTIIP | binds
